The test system of this data set is Escherichia coli TOP10. Briefly: shrunken log2 fold change of peptide-encoding DNA abundance (4.5 h post-induction vs induction); higher = less antimicrobial activity (less host growth inhibition). Conditions: time post-induction: 4.5 h; library: site-saturation at positions 5, 18, 19, 20.
Turning to RRIRWRPPRLPRPRPRPELAPRP, the “shrunken log2 fold change” value was 0.758.

As to RRIRIRPPRLPRPRPRPFSPPRP, the “shrunken log2 fold change” value is -0.267.

As for RRIRSRPPRLPRPRPRPHTEPRP, the “shrunken log2 fold change” value was -0.599. RRIRDRPPRLPRPRPRPDWQPRP: the “shrunken log2 fold change” value stood at 0.252. For RRIRHRPPRLPRPRPRPDMHPRP, the “shrunken log2 fold change” value is -0.329. As for RRIRTRPPRLPRPRPRPWSSPRP, the “shrunken log2 fold change” value was -0.241. On to RRIRERPPRLPRPRPRPLNAPRP, for which the “shrunken log2 fold change” value is -0.113. Take RRIRWRPPRLPRPRPRPKTEPRP: the “shrunken log2 fold change” value was determined as 0.111. Take RRIRHRPPRLPRPRPRPAYAPRP: the “shrunken log2 fold change” value is -0.182. With RRIRLRPPRLPRPRPRPCAIPRP the figure was -0.218; with RRIRGRPPRLPRPRPRPGIYPRP, 0.641. Regarding RRIRDRPPRLPRPRPRPSSQPRP, the “shrunken log2 fold change” value was -0.0971. As to RRIRSRPPRLPRPRPRPEVKPRP, the “shrunken log2 fold change” value was 0.287. For the sequence RRIRERPPRLPRPRPRPWCEPRP, the “shrunken log2 fold change” value was -0.349. With RRIRRRPPRLPRPRPRPACHPRP the figure was 0.306. With RRIRPRPPRLPRPRPRPFDAPRP the figure was 0.0141. Turning to RRIRCRPPRLPRPRPRPHRNPRP, the “shrunken log2 fold change” value is -0.791. As for RRIRERPPRLPRPRPRPEVRPRP, the “shrunken log2 fold change” value came to 0.138.

Turning to RRIRGRPPRLPRPRPRPNHRPRP, the “shrunken log2 fold change” value was 0.00454. As to RRIRERPPRLPRPRPRPDMEPRP, the “shrunken log2 fold change” value was -0.201. To RRIRNRPPRLPRPRPRPHWMPRP belongs -0.0835. Consider RRIRQRPPRLPRPRPRPWSKPRP, for which the “shrunken log2 fold change” value amounted to 0.00202. Take RRIRMRPPRLPRPRPRPVWEPRP: the “shrunken log2 fold change” value was found to be 0.4. For the sequence RRIRLRPPRLPRPRPRPTEGPRP, the “shrunken log2 fold change” value was found to be 0.166.

On to RRIRLRPPRLPRPRPRPQWHPRP, for which the “shrunken log2 fold change” value was -0.193. On to RRIRLRPPRLPRPRPRPLMEPRP, for which the “shrunken log2 fold change” value was -0.392. Consider RRIRHRPPRLPRPRPRPKKPPRP, for which the “shrunken log2 fold change” value was -0.125. As for RRIRWRPPRLPRPRPRPDEKPRP, the “shrunken log2 fold change” value was 0.0625.

As to RRIRERPPRLPRPRPRPDYCPRP, the “shrunken log2 fold change” value is -0.00145. With RRIRQRPPRLPRPRPRPKWQPRP the figure was 0.0435. On to RRIRNRPPRLPRPRPRPTRVPRP, for which the “shrunken log2 fold change” value was 0.376. Turning to RRIRHRPPRLPRPRPRPEWLPRP, the “shrunken log2 fold change” value came out at 0.274.

RRIRIRPPRLPRPRPRPIKNPRP: the “shrunken log2 fold change” value is -0.546. To RRIRKRPPRLPRPRPRPICPPRP belongs -0.122. Consider RRIRRRPPRLPRPRPRPCPCPRP, for which the “shrunken log2 fold change” value is -0.176. In the case of RRIRARPPRLPRPRPRPLVAPRP, the “shrunken log2 fold change” value was found to be 0.58.

Consider RRIRYRPPRLPRPRPRPHVYPRP, for which the “shrunken log2 fold change” value was -0.748. With RRIRERPPRLPRPRPRPLSAPRP, the “shrunken log2 fold change” value was -0.229. For RRIRVRPPRLPRPRPRPICRPRP, the “shrunken log2 fold change” value stood at 0.177. Take RRIRSRPPRLPRPRPRPALNPRP: the “shrunken log2 fold change” value amounted to 0.161. On to RRIRERPPRLPRPRPRPRENPRP, for which the “shrunken log2 fold change” value is -0.362. To RRIRNRPPRLPRPRPRPAYMPRP belongs -0.119; to RRIRCRPPRLPRPRPRPVHAPRP, 0.065; to RRIRWRPPRLPRPRPRPMLYPRP, 0.0136. To RRIRIRPPRLPRPRPRPSHYPRP belongs -0.528; to RRIRTRPPRLPRPRPRPQSEPRP, -0.141. With RRIRARPPRLPRPRPRPCKNPRP the figure was 0.138; with RRIRCRPPRLPRPRPRPDGSPRP, -0.133. RRIRERPPRLPRPRPRPTFAPRP: the “shrunken log2 fold change” value was -0.0119. On to RRIRTRPPRLPRPRPRPEIVPRP, for which the “shrunken log2 fold change” value came out at 0.00632. With RRIRSRPPRLPRPRPRPNVEPRP the figure was 0.814; with RRIRTRPPRLPRPRPRPMWTPRP, -0.00193; with RRIRYRPPRLPRPRPRPPNWPRP, -0.00249. With RRIRLRPPRLPRPRPRPEWCPRP, the “shrunken log2 fold change” value is -0.131.

With RRIRGRPPRLPRPRPRPTYAPRP, the “shrunken log2 fold change” value amounted to 0.436. For the sequence RRIRIRPPRLPRPRPRPWYCPRP, the “shrunken log2 fold change” value was -0.0341. With RRIRERPPRLPRPRPRPWSFPRP the figure was -0.0191; with RRIRFRPPRLPRPRPRPDTAPRP, -0.22. On to RRIRYRPPRLPRPRPRPNRCPRP, for which the “shrunken log2 fold change” value turned out to be 0.00786. For RRIRFRPPRLPRPRPRPWLRPRP, the “shrunken log2 fold change” value is -0.0551. With RRIRYRPPRLPRPRPRPESGPRP the figure was -0.0308; with RRIRDRPPRLPRPRPRPPDWPRP, 0.421. RRIRFRPPRLPRPRPRPRCTPRP: the “shrunken log2 fold change” value was determined as 0.0551. Turning to RRIRERPPRLPRPRPRPLLCPRP, the “shrunken log2 fold change” value is -0.183. With RRIRNRPPRLPRPRPRPQSFPRP the figure was -0.0341. With RRIRLRPPRLPRPRPRPVHSPRP the figure was 0.00898; with RRIRFRPPRLPRPRPRPRQHPRP, 0.0181. RRIRLRPPRLPRPRPRPDSQPRP: the “shrunken log2 fold change” value was -0.117. As for RRIRNRPPRLPRPRPRPFHSPRP, the “shrunken log2 fold change” value is -0.0225. Turning to RRIRTRPPRLPRPRPRPEHHPRP, the “shrunken log2 fold change” value was -0.203. For RRIRRRPPRLPRPRPRPLELPRP, the “shrunken log2 fold change” value turned out to be 0.199. With RRIRGRPPRLPRPRPRPPYIPRP the figure was -0.271; with RRIRRRPPRLPRPRPRPQSSPRP, -0.0217; with RRIRLRPPRLPRPRPRPKTNPRP, -0.0556. As to RRIRVRPPRLPRPRPRPSFYPRP, the “shrunken log2 fold change” value is -0.872.

Regarding RRIRIRPPRLPRPRPRPTIEPRP, the “shrunken log2 fold change” value was -0.44.

For the sequence RRIRSRPPRLPRPRPRPTTQPRP, the “shrunken log2 fold change” value was 0.22. Consider RRIRRRPPRLPRPRPRPKEVPRP, for which the “shrunken log2 fold change” value was 0.195. As to RRIRIRPPRLPRPRPRPFGCPRP, the “shrunken log2 fold change” value is -0.742. With RRIRFRPPRLPRPRPRPTAHPRP the figure was 0.193; with RRIRKRPPRLPRPRPRPDVNPRP, 0.139; with RRIRPRPPRLPRPRPRPRGQPRP, 0.204. As to RRIRYRPPRLPRPRPRPRDNPRP, the “shrunken log2 fold change” value is -0.712.

As for RRIRDRPPRLPRPRPRPPHVPRP, the “shrunken log2 fold change” value came out at 0.0772. Regarding RRIRCRPPRLPRPRPRPHFQPRP, the “shrunken log2 fold change” value is -0.511. Turning to RRIRFRPPRLPRPRPRPDGVPRP, the “shrunken log2 fold change” value is -0.14. As for RRIRPRPPRLPRPRPRPQGDPRP, the “shrunken log2 fold change” value is 0.243. Consider RRIRCRPPRLPRPRPRPGAMPRP, for which the “shrunken log2 fold change” value is 0.319. As to RRIRQRPPRLPRPRPRPSYRPRP, the “shrunken log2 fold change” value was -0.0524. As to RRIRARPPRLPRPRPRPRLFPRP, the “shrunken log2 fold change” value turned out to be 0.465. Take RRIRFRPPRLPRPRPRPKPAPRP: the “shrunken log2 fold change” value was found to be 0.739.

The values are drawn from the supplement of paper PMC9112550, “Optimization of the antimicrobial peptide Bac7 by deep mutational scanning” (BMC Biology, 2022).
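Note: peptides expressed intracellularly from a pBAD plasmid library in pooled LB shake-flask culture, induced with 0.3% L-arabinose, DNA abundance read by NGS, three biological replicates, DESeq2 with apeglm shrinkage.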
